Among the data in US20150064134A1 are % activity values, retold here.

Some targets named below: Abl(H396P)(h) (human) (UniProt P00519); CK1γ2(h) (human) (UniProt P78368); PAK5(h) (human) (UniProt Q9P286); Abl(T315I)(h) (human) (UniProt P00519); Yes(h) (human) (UniProt P07947); JAK2(h) (human) (UniProt O60674); HIPK3(h) (human) (UniProt Q9H422); CK1γ3(h) (human) (UniProt Q9Y6M4); Lck(h) (human) (UniProt P06239); Fgr(h) (human) (UniProt P09769); FGFR1(V561M)(h) (human) (UniProt P11362); EGFR(T790M)(h) (human) (UniProt P00533); JNK1α1(h) (human) (UniProt P45983); PAK3(h) (human) (UniProt O75914); Met(Y1248H)(h) (human) (UniProt P08581); PKCη(h) (human) (UniProt P24723); cKit(V560G)(h) (human) (UniProt P10721); PAR-1Bα(h) (human) (UniProt Q7KZI7); FAK(h) (human) (UniProt Q05397); ACK1(h) (human) (UniProt Q07912); SRPK2(h) (human) (UniProt P78362); c-RAF(h) (human) (UniProt P04049); JAK3(h) (human) (UniProt P52333); TLK2(h) (human) (UniProt Q86UE8); MRCKα(h) (human) (UniProt Q5VT25); BTK(h) (human) (UniProt Q06187); GRK5(h) (human) (UniProt P34947); PAK6(h) (human) (UniProt Q9NQU5); MAPK1(h) (human) (UniProt P28482); CK2α2(h) (human) (UniProt P19784); Tie2(R849W)(h) (human) (UniProt Q02763); IGF-1R(h) (human) (UniProt P08069).

Common to all, as to experiment: cell-based or functional assay
The target of a further experiment is T1, Fms(Y969C)(h) (human) (UniProt P07333).
T1 sequence (looked up): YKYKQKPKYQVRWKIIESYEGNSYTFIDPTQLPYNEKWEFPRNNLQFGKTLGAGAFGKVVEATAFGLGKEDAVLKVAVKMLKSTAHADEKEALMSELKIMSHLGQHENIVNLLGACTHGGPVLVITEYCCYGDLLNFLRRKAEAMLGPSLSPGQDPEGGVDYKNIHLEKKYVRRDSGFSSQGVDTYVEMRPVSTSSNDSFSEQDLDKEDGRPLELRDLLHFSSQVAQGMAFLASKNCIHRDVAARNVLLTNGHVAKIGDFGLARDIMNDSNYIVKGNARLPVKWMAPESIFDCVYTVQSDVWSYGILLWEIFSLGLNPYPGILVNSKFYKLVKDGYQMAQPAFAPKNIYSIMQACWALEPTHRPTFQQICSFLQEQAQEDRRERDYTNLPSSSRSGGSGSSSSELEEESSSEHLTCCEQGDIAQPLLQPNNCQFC

Chain of cKit(V560G)(h) (human) (P10721 544-976 V560G): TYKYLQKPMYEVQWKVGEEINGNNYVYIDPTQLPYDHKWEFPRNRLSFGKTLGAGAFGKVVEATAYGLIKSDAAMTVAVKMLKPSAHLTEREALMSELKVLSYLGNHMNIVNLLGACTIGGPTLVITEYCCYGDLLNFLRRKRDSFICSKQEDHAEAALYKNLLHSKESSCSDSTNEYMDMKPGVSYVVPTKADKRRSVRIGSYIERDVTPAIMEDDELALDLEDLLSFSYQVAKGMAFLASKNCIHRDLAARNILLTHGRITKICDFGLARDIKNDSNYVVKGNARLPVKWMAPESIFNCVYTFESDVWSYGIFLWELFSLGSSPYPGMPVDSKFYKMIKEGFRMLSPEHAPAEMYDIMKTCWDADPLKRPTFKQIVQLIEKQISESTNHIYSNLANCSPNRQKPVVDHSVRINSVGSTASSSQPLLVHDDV
Chain of FGFR1(V561M)(h) (human) (P11362 456-765 V561M limits assumed): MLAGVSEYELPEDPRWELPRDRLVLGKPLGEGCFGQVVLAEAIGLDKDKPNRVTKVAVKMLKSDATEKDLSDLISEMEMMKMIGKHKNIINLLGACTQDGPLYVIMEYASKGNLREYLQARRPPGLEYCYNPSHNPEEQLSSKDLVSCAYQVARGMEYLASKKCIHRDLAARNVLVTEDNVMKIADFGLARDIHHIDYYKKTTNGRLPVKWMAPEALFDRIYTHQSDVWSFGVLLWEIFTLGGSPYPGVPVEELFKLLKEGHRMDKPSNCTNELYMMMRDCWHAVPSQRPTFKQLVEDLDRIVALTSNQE
Chain of Abl(H396P)(h) (human) (P00519 27-1130 H396P limits assumed): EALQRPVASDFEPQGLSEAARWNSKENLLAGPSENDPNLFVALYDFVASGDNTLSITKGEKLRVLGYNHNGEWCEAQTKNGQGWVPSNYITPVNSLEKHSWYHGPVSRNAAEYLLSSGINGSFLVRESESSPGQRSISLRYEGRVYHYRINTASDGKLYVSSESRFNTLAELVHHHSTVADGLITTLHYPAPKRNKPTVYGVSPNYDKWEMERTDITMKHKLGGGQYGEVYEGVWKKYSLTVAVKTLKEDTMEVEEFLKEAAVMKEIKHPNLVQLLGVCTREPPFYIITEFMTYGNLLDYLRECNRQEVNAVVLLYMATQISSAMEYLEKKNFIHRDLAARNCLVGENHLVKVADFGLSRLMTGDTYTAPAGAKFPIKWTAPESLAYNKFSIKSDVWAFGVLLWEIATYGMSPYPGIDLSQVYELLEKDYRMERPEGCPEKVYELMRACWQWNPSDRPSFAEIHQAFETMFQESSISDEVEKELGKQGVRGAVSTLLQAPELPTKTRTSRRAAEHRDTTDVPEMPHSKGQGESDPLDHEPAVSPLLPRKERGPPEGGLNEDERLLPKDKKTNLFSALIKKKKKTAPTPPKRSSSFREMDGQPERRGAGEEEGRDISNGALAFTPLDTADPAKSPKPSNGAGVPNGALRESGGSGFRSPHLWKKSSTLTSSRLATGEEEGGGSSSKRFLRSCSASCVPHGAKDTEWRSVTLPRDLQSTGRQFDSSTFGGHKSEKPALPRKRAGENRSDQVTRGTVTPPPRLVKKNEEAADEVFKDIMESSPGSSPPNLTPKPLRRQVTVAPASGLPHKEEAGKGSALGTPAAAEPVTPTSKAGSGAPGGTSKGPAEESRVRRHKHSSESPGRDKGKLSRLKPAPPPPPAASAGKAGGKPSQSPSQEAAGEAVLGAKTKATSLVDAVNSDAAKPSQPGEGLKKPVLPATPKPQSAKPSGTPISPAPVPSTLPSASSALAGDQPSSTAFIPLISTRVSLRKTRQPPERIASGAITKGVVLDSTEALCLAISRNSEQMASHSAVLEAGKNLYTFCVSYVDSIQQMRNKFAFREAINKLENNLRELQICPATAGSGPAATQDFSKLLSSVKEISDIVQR
Chain of Abl(T315I)(h) (human) (P00519 27-1130 T315I limits assumed): as the sequence (P00519 27-1130 H396P limits assumed) above, with T289I, P370H counted along it
Chain of IGF-1R(h) (human) (P08069 959-1367 limits assumed): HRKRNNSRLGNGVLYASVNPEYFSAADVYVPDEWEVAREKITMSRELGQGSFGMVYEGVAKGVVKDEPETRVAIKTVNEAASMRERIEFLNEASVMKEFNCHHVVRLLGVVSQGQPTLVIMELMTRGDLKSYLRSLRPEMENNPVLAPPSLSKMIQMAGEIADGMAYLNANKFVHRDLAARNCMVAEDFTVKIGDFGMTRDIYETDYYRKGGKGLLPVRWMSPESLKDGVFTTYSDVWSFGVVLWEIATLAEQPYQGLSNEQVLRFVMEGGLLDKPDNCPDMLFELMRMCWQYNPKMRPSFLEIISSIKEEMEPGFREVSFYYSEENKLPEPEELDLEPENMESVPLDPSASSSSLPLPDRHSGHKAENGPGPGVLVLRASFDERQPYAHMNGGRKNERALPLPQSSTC
Chain of MAPK1(h) (human) (P28482 whole entry): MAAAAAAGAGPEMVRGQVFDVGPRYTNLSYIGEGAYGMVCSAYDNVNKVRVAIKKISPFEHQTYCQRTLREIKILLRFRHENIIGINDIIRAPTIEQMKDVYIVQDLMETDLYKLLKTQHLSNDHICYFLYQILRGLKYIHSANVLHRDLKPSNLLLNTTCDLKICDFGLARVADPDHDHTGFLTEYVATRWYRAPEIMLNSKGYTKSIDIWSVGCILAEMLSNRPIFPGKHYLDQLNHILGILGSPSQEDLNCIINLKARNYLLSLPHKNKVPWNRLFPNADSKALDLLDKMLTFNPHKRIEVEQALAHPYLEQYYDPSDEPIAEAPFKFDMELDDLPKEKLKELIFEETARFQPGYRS
Chain of Tie2(R849W)(h) (human) (Q02763 771-1124 R849W limits assumed): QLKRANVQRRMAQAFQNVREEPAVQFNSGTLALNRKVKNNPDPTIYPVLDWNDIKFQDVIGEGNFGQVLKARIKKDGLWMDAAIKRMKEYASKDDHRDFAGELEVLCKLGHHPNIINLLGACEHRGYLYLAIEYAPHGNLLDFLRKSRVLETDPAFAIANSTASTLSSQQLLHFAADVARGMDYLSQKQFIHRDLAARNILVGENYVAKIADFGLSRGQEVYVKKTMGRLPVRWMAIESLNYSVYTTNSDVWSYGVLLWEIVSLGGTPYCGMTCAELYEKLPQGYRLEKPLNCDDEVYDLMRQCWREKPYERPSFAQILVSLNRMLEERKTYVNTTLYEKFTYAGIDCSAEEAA
Chain of PAK3(h) (human) (O75914 other isoform, or with tags, fused parts or gaps limits assumed): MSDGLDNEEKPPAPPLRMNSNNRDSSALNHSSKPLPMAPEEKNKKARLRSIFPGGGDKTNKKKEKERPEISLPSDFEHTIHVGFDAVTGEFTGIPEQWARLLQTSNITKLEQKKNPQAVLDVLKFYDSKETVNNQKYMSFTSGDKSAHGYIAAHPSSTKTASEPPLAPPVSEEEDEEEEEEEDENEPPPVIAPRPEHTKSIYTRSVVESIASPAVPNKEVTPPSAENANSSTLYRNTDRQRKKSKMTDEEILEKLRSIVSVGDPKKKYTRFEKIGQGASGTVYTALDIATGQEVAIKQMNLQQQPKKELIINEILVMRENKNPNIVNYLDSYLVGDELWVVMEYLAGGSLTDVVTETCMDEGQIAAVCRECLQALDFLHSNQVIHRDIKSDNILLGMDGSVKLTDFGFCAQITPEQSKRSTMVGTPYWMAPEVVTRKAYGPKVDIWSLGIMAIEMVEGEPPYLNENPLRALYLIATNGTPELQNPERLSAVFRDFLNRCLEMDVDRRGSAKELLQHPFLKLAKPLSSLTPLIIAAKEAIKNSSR

Consider MMI-0300 (peptide), for which the % activity at 100 µM with Abl(H396P)(h) (human) was found to be 101%; in the experiment with CK1γ2(h) (human) it was 123%; in the experiment with Fms(Y969C)(h) (human), 72%; with PAK5(h) (human), 110%; in the experiment with Abl(T315I)(h) (human) it was 97%; in the experiment with Yes(h) (human), 67%. Also, the % activity at 100 µM with JAK2(h) (human) is 133%; with HIPK3(h) (human), 93%; in the experiment with CK1γ3(h) (human) it was 125%; with Lck(h) (human) it was -2%; with Fgr(h) (human) it was 60%; with FGFR1(V561M)(h) (human) it was 74%. Besides, the % activity at 100 µM with EGFR(T790M)(h) (human) amounted to 100%; with JNK1α1(h) (human), 97%; with PAK3(h) (human) it was 140%.
MMI-0500 (peptide): the % activity at 100 µM with Abl(H396P)(h) (human) was 51%; with Met(Y1248H)(h) (human), 126%; with PAK5(h) (human) it was 125%; in the experiment with Abl(T315I)(h) (human) it was 16%; in the experiment with PKCη(h) (human) it was 45%; with JAK2(h) (human), 49%. The % activity at 100 µM with cKit(V560G)(h) (human) was determined as 198%; with PAR-1Bα(h) (human), 97%; with FAK(h) (human), 94%; with ACK1(h) (human), 64%; with SRPK2(h) (human) it was 80%; with c-RAF(h) (human), 19%. Moreover, the % activity at 100 µM in the experiment with HIPK3(h) (human) stood at 85%; with JAK3(h) (human), 95%; with TLK2(h) (human) it was 133%; in the experiment with Lck(h) (human), 359%; with EGFR(T790M)(h) (human), 70%; with MRCKα(h) (human), 5%. In the experiment with BTK(h) (human), the % activity at 100 µM amounted to 18%.
Turning to MMI-0400 (peptide), the % activity at 100 µM with Met(Y1248H)(h) (human) amounted to 63%; with Fms(Y969C)(h) (human), 91%; with PKCη(h) (human), 98%; with GRK5(h) (human) it was 131%; with Yes(h) (human), 14%; in the experiment with cKit(V560G)(h) (human), 124%. Moreover, the % activity at 100 µM was determined as 96% with FAK(h) (human); 95% with ACK1(h) (human); 97% in the experiment with SRPK2(h) (human); 100% with PAK6(h) (human); 122% with JAK3(h) (human); 151% with TLK2(h) (human). For the same substance, the % activity at 100 µM with Fgr(h) (human) was found to be 47%; with MAPK1(h) (human), 100%; with FGFR1(V561M)(h) (human), 74%; in the experiment with JNK1α1(h) (human) it was 98%; in the experiment with MRCKα(h) (human), 97%; with CK2α2(h) (human), 96%. In addition, the % activity at 100 µM in the experiment with BTK(h) (human) stood at 94%; in the experiment with Tie2(R849W)(h) (human) it was 108%; with IGF-1R(h) (human), 90%.
